Assay results taken from patent US8822645B2, “Prostaglandin E2 dual variable domain immunoglobulins and uses thereof” (AbbVie Inc., priority 2008, dated 2014).

B1: DVD151: DVD-Ig construct listed in Table 4 (antibody)
VH: EVQLVQSGAEVKKPGASVKVSCKASGYTFTKYWLGWVRQAPGQGLEWMGDIYPGYDYTHYNEKFKDRVTLTTDTSTSTAYMELRSLRSDDTAVYYCARSDGSSTYWGQGTLVTVSSASTKGPEVQLQESGPGLVRPSQTLSLTCTVSGYSITSDHAWSWVRQPPGRGLEWIGYISYSGITTYNPSLKSRVTMLRDTSKNQFSLRLSSVTAADTAVYYCARSLARTTAMDYWGQGSLVTVSS
VL: DVLMTQTPLSLPVTPGEPASISCTSSQNIVHSNGNTYLEWYLQKPGQSPQLLIYKVSNRFSGVPDRFSGSGSGTDFTLKISRVEAEDVGVYYCFQVSHVPYTFGGGTKVEIKRTVAAPDIQMTQSPSSLSASVGDRVTITCRASQDISSYLNWYQQKPGKAPKLLIYYTSRLHSGVPSRFSGSGSGTDFTFTISSLQPEDIATYYCQQGNTLPYTFGQGTKVEIKR
B2: 8C11: murine anti-mouse TNFα monoclonal antibody clone (antibody, V domains shown)
VH: EFQLQQSGPELVKPGASVRISCKASGYSFTDYNMNWVKQSNGKSLEWVGVINPNYGSSTYNQKFKGKATLTVDQSSSTAYMQLNSLTSEDSAVYYCARKWGQLGRGFFDVWGTGTTVTVSS
VL: QIVLSQSPAILSASPGEKVTMTCRASSSVSYMHWFQQKPGSSPKPWIYATSNLASGVPARFSGSGSGTSYSLTISRVEAEDAATYYCQQWSSSPLTFGAGTKLELKR

What was measured:
[1] = test system: PGE2 / human EP4 receptor in HEK293 Gα16 cells; test: EP4 bioassay (Ca++ flux, neutralization of PGE2); format: cell-based; conditions: PGE2 VD in N-terminal position; EP4 bioassay, Ca++ flux; read-out: N-terminal VD PGE2 Neutralization EC50
Method: The ability of anti-PGE2 antibodies and anti-PGE2 containing DVD-Ig molecules to inhibit the cellular response of PGE2 was determined in a Ca++ flux assay in HEK293 Gα16 cells stably transfected with human EP4 receptor. Cells were plated in black/clear poly-D-lysine plates, (Corning #3667, Corning, N.Y.) and incubated with Ca++-sensitive dye (Molecular Devices) for 90 minutes. Stock PGE2 (in 200 proof ethanol) was diluted with FLIPR buffer (containing 1×HBSS (Invitrogen, Carlsbad, Calif.), 20 mM HEPES (Invitrogen, Carlsbad, Calif.), 0.1% BSA (Sigma, St. Louis, Mo.) and 2.5 mM Probenecid (Sigma, St. Louis, Mo.)). Anti-PGE2 antibodies, DVD-Ig molecules or isotype matched control antibodies were also pre-diluted in FLIPR buffer. 25 μl of PGE2 or pre-incubated PGE2/antibody mixture or pre-incubated PGE2/DVD-Ig molecule mixture was added to the wells pre-plated with cells. A dose response of PGE2 was done by a serial titration of PGE2 and was determined using FLIPR1 or Tetra (Molecular Devices). EC50 was determined using GraphPad Prism 5 (GraftPad Software, La Jolla, Calif.). […] Ca++ flux was monitored using FLIPR1 and data was analyzed using GraphPad Prism 5.
The ability of anti-PGE2 antibodies and anti-PGE2 containing DVD-Ig molecules to inhibit the cellular response of PGE2 was determined in a Ca++ flux assay using stably transfected human EP4 in HEK293 Gα16 cells. Cells were plated in black/clear Poly-D-Lysine plates, (Corning #3667) and incubated with Ca++-sensitive dye (Molecular Devices) for 90 minutes. Stock PGE2 (in 200 proof ethanol) was diluted with FLIPR buffer (containing 1×HBSS, 20 mM HEPES, 0.1% BSA and 2.5 mM Probenecid). Anti-PGE2 antibodies, DVD-Ig molecules or isotype matched control antibodies were also pre-diluted in FLIPR buffer. 25 μl of PGE2 or pre-incubated PGE2/antibody mixture or pre-incubated PGE2/DVD-Ig molecule mixture was added to the wells pre-plated with cells. A dose response of PGE2 was done by a serial titration of PGE2 and was determined using FLIPR1 or Tetra (Molecular Devices). EC50 was determined using GraphPad Prism 5. […] Ca++ flux was monitored using FLIPR1 and data was analyzed using GraphPad Prism 5.

[2] = PGE2-biotinamide ELISA (PGE2 binding); conditions: PGE2 VD in N-terminal position, read-out: Direct Bind ELISA N-terminal VD EC50
Method: (§1) Enzyme linked immunosorbent assays to screen for anti-PGE2 antibodies or anti-PGE2 containing DVD-Ig molecules that bind prostaglandin E2 were performed as follows. ELISA plates (Costar 3369, Corning, N.Y.) were coated with 50 μl of anti-host Fc IgG (Sigma, St. Louis, Mo.) at 2 μg/ml in PBS (Invitrogen Carlsbad, Calif.). Following an overnight incubation at 4° C., the plate was blocked with 200 μl Superblock (Pierce #37535, Rockford, Ill.). The IgG or DVD-Ig containing samples were diluted to 1 μg/ml in Assay Buffer (10% Superblock in PBS containing 0.05% Surfactamps (Pierce #37535, Rockford, Ill.) and incubated on the plate at 50 μl/well for 1 hour at room temperature. Following the incubation, plates were washed four times with TTBS (Tween-Tris Buffered Solution). For PGE2 binding, PGE2-biotinamide (Cayman Chemicals, Ann Arbor, Mich.) was diluted to 30 nM and serially diluted in Assay Buffer. The titration curve was added to each IgG or DVD-Ig sample at a volume of 50 μl/well and incubated for 1 hour at room temperature. The plates were washed as previously described and 50 μl/well of 1:5000 dilution of streptavidin polyhrp40 (Fitzgerald Industries, Concord, Mass.) in Assay Buffer was added and incubated for 45 minutes at room temperature. A final wash step was performed and the plates were developed using a single step TMB system (Sigma #T8665, St. Louis, Mo.) and 2N H2SO4. Plates were read at 450 nm on a Molecular Devices Spectramax plate reader (Sunnyvale, Calif.). EC50 was determined using GraphPad Prism 5 (GraphPad Software, La Jolla, Calif.) (FIG. 2).
as §1, with “ELISA” for “Enzyme linked immunosorbent assays to screen for anti-PGE2 antibodies or anti-PGE2 containing DVD-Ig molecules that bind prostaglandin E2 were performed as follows. ELISA”, “(Invitrogen,” for “(Invitrogen”, “IgG” for “IgG or DVD-Ig”, “Solution).” for “Solution). For PGE2 binding,”, “Calif.).” for “Calif.) (FIG. 2).”

[3] = Size exclusion chromatography, percent monomer of parent antibodies and DVD-Ig constructs; format: physicochemical
Method: Antibodies were diluted to 2.5 mg/mL with water and […] is analyzed on a Shimadzu HPLC system using a TSK gel G3000 SWXL column (Tosoh Bioscience, cat#k5539-05k). […] The HPLC system operating conditions are the following: […]

[4] = test system: stable cell lines overexpressing a cell-surface antigen of interest or human tumor cell lines; test: Flow cytometry (FACS) binding to cell surface antigen; format: cell-based; conditions: IL-6R VD in C-terminal position; 2 μg/mL
Method: Stable cell lines overexpressing cell-surface antigen of interest or human tumor cell lines were harvested from tissue culture flasks and resuspended in phosphate buffered saline (PBS) containing 5% fetal calf serum (PBS/FCS). Prior to staining, human tumor cells were incubated on ice with human IgG at 200 μg/ml in PBS/FCS. 1-5×10^5 cells were incubated with antibody or DVD-Ig (1-2 μg/mL) in PBS/FCS for 30-60 minutes on ice. […] After 30 minutes incubation on ice, cells were washed twice and resuspended in PBS/FCS. Fluorescence was measured using a Becton Dickinson FACSCalibur (Becton Dickinson, San Jose, Calif.).
Stable cell lines overexpressing a cell-surface antigen of interest or human tumor cell lines were harvested from tissue culture flasks and resuspended in phosphate buffered saline (PBS) containing 5% fetal bovine serum (PBS/FBS). Prior to staining, human tumor cells were incubated on ice with (100 μl) human IgG at 5 μg/ml in PBS/FCS. 1-5×10^5 cells were incubated with antibody or DVD-Ig (2 μg/mL) in PBS/FBS for 30-60 minutes on ice. […] After 30 minutes incubation on ice, cells were washed twice and resuspended in PBS/FBS. Fluorescence was measured using a Becton Dickinson FACSCalibur (Becton Dickinson, San Jose, Calif.).
The geometric mean is the n root of the multiplication product of n fluorescent signals (a1×a2×a3 . . . an). […]

[5] = test system: C57BL6/N mice, LPS/D-Galactosamine-induced lethality; test: LPS-D-galactosamine-induced lethality; format: in vivo, mouse; conditions: 12 mg/kg IP
Method: Saline alone was used as a negative control. Another group received […] 8C11-1E10, an anti-mouse TNF monoclonal antibody, as a positive control.
At the time of challenge, the mice were injected i.p. with 500 μL dose volume of saline containing 100 ng/mouse LPS (Sigma L4130, lot 095K4056, St. Louis, Mo.) and 20 mg/mouse D-Galactosamine (Sigma G-0500, lot 048K1547, St. Louis, Mo.). The mice were then monitored for lethality twice a day for 48 hours. At 48 hours the remaining surviving mice were sacrificed and bled for plasma antibody levels.

Molecule	EC50 [1]	EC50 [2]	% Monomer (purity) [3]	FACS Geometric Mean C-terminal [4]	% Survival [5]	Mean Plasma Ab Concentration [5]
B1	0.036 nM	1.52 nM	92.7%	0.21		
B2					100%	65 ± 4.0 µg/mL
